Data taken from patent US10363306B2, “Cytokines and neuroantigens for treatment of immune disorders” (East Carolina University, priority 2009, dated 2019).
Ends that are not written are not given here.

Key:
[1] = Solubility of peptide; type: physicochemical; conditions: routinely reconstituted in saline
Method: A colony of Lewis rats was maintained at East Carolina University School of Medicine. Animal care and use was approved by the Institutional Animal Care and Use Committee and was performed in accordance with approved institutional guidelines. The synthetic peptide gp69-88 ([…]) (SEQ ID NO. 5) was obtained from Quality Controlled Biologicals, Inc. (Hopkinton, Mass.). The purity of gp69-88 was greater than 98%. […] The OX6 anti-I-A (RT1B) IgG1, the R73 anti-TCRβ IgG1, the OX81 anti-IL-4 IgG1, and the OX18 anti-MHC class I glycoproteins (MHC-I) (RT1A) IgG1 were concentrated by ultrafiltration of B cell hybridoma supernatants through Millipore spiral wound membranes (100 kd exclusion). Hybridomas were obtained from the European Collection of Cell Cultures. The B5 IgM anti-MHC-I (RT1A^a,b,l) mAb was purchased from BD Biosciences. FITC-conjugated goat anti-mouse IgG1 was purchased from Southern Biotechnology (Birmingham, Ala.).

[2] = tested on: BN-GP T cells; assay: IFNβ anti-proliferative activity in IL-2 stimulated cultures of BN-GP T cells; type: cell-based, rat; conditions: expression supernatants, transient transfection of HEK293 cells
Method: FIG. 1. The IFNβ-NAg his-tagged fusion protein was biologically active and was purified on nickel resins. (A) To assess whether IFNβ-NAg induced class I MHC expression, thymocytes (5×10^6/ml in complete RPMI) were cultured with or without IFNβ-NAg for 2 days and then were stained with B5 (anti-MHC-I), OX18 (anti-MHC-I), R73 (anti-TCRβ), or OX81 (anti-IL4; isotype control) and were analyzed by flow cytometry. (B) To assess IFNβ-mediated anti-proliferative activity, supernatants from two independently derived IFNβ-NAg expression systems as well as supernatants from several control expression systems were added at designated titrations (x-axis) to IL-2 stimulated cultures of BN-GP T cells. (C) To assess the specificity of anti-proliferative activity, baculovirus supernatants containing IFNβ-NAg were added at designated titrations to cultures of rat (R1T, BN-GP, RsL.11T, RsL.11, or Conal.8D9) or mouse (CTLL) T cells. Proliferative assays (B & C) were pulsed with [^3H]thymidine on the second day of a 3-day culture. (D) Shown is a representative SDS-PAGE analysis of purified IFNβ-NAg.
FIG. 2. Structure-function analysis of the cytokine and NAg domains of IFNβ fusion proteins. (A) Expression supernatants containing designated IFNβ fusion proteins (see Table 2) were added to cultures of BN-GP T cells at designated titrations (x-axis). (B) The IFNβ-EK-NAg-6his or IFNβ-EK-6his fusion genes were inserted into the pCEP4 expression vector (Invitrogen). Inserts were verified by DNA sequencing, and the genes were expressed by transient transfection of HEK293 cells. Independently derived expression systems of IFNβ-EK-NAg-6his or IFNβ-EK-6his (3 each) were compared in the BN-GP T cell anti-proliferative assay. (C) Independently purified preparations (2 each) of each IFN-β fusion protein (IFNβ-NAg from HEK293 cells, IFNβ-NAg from baculovirus, and IFN-β from HEK293 cells) were added at designated concentrations to assess anti-proliferative activity. Two independently purified preparations of the same fusion protein were tested to verify the reliability of activity for each type of protein. The x-axis was based on the exponent of the molar concentration. For example, a concentration of 100 nM was represented as Log [10^−7]=Log10) (10^−7M)=−7 and was plotted by the exponent of −7. For these experiments (A-C), BN-GP T cells were cultured in IL-2. (D) The MBP-specific RsL.11 T cell clone and irradiated splenic APC were cultured with designated concentrations of purified IFNβ-NAg or GPMBP in the presence or absence of the OX6 anti-MHC-II mAb. (E) Five preparations of purified IFNβ-NAg and six preparations of purified IFN-β were tested for antigenic activity in cultures of RsL.11 T cells and irradiated splenic APC.
The RsL.11 MBP-specific clone was a stable, IL-2 dependent line derived from Lewis rats sensitized with rat MBP in CFA (Mannie, M. D., and M. S. Norris. 2001. MHC class-II-restricted antigen presentation by myelin basic protein-specific CD4+ T cells causes prolonged desensitization and outgrowth of CD4-responders. Cell Immunol 212:51-62). The RsL.11T clone was a transformed variant of the RsL.11 clone. […]

solubility [1] | Molecule | Biological activity of IFNβ in expression supernatants [2]
freely soluble | YGSLPQKSQRSQDENPVVHF [NAg] | –
– | ss-IFNβ-6his: Rat IFNβ with 6-histidine sequence, lacking the EK linker (protein, UniProt P70499 22-184, looked up, C-terminal 6His tag) Interferon beta: IDYKQLQFRQSTSIRTCQKLLRQLNGRLNLSYRTDFKIPMEVMHPSQMEKSYTAFAIQVMLQNVFLVFRSNFSSTGWNETIVESLLDELHQQTELLEIILKEKQEERLTWVTSTTTLGLKSYYWRVQRYLKDKKYNSYAWMVVRAEVFRNFSIILRLNRNFQN | Weak activity
– | ss-IFNβ: Rat IFNβ without non-native C-terminal or N-terminal additions (protein, UniProt P70499 22-184, looked up) Interferon beta: IDYKQLQFRQSTSIRTCQKLLRQLNGRLNLSYRTDFKIPMEVMHPSQMEKSYTAFAIQVMLQNVFLVFRSNFSSTGWNETIVESLLDELHQQTELLEIILKEKQEERLTWVTSTTTLGLKSYYWRVQRYLKDKKYNSYAWMVVRAEVFRNFSIILRLNRNFQN | Potent activity
